Laboratory results as given in patent publication US20250092426, “CAS ENDONUCLEASES AND RELATED METHODS” (Flagship Pioneering Innovations VII, LLC, published 2025).

Biological target: T1, CasEnd-36 (synthetic construct)
T1 chain: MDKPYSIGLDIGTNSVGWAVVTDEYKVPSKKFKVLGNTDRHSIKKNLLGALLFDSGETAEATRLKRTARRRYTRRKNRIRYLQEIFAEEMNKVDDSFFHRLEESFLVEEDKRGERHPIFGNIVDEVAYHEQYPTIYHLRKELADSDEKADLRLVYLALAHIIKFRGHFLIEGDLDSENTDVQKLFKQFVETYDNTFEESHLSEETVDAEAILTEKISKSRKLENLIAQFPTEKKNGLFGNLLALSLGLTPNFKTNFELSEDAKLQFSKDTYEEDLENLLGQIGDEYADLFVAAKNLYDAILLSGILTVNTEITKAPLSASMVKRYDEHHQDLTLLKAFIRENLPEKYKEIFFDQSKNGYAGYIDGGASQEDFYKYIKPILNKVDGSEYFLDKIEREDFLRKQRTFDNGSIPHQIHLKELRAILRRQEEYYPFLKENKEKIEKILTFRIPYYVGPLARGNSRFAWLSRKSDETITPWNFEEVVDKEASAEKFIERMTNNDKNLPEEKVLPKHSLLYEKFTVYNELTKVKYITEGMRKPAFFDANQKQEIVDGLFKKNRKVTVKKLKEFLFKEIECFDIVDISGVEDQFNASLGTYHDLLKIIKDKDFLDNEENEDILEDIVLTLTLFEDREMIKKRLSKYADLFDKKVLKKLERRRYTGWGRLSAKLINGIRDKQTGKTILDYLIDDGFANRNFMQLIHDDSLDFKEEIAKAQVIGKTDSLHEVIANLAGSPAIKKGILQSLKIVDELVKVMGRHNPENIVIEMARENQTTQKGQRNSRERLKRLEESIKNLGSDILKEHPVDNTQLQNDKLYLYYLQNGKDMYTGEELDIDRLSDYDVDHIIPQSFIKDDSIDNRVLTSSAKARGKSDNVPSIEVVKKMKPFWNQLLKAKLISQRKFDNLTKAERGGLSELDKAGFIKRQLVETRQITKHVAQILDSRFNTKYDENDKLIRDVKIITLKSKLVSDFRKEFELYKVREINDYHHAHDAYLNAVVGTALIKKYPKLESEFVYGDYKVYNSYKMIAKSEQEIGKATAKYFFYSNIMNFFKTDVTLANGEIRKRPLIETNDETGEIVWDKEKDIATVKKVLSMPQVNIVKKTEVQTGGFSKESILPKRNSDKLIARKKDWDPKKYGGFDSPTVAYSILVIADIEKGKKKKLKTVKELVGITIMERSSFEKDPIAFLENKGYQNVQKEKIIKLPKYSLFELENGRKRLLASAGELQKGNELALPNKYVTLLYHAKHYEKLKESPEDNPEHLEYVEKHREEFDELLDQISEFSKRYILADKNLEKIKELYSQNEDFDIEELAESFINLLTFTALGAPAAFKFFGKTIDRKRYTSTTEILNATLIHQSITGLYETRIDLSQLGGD
Experiment: cell_activity; +++; HEK293T; PAM not stated
Procedure, shortened: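 Editing activity was scored as the fraction of GFP+ cells on day 4 by flow cytometry. BFP-expressing HEK293T cells (250,000) received by nucleofection 200 ng plasmid for the RT-Cas fusion protein and 200 ng template RNA plasmid designed to convert BFP to GFP.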

B1: BFP-to-GFP template RNA ; BFP reporter protospacer (ssRNA ; dsDNA)
RNA: GCCGAAGCACUGCACGCCGUGUUUUAGAGCUAGAAAUAGCAAGUUAAAAUAAGGCUAGUCCGUUAUCAACUUGAAAAAGUGGCACCGAGUCGGUGCACCCUGACGUACGGCGUGCAGUGCUU
DNA 1: GCCGAAGCACTGCACGCCGT
DNA 2: ACGGCGTGCAGTGCTTCGGC
activity: ≥ 100 % of reference
